Test results as given in US20160279215A1, “NOVEL PEPTIDES AND COMBINATION OF PEPTIDES FOR USE IN IMMUNOTHERAPY AGAINST VARIOUS TUMORS” (immatics biotechnologies GmbH, priority 2015, published 2016).

Molecular target: T1, HLA-A*02:01 (Homo sapiens, UniProt P04439, D140Y/D185E/D98H/E176V/E277Q/G131W/G231S/I119V/I121R/I166T/I218V/L300P/L318F/N151K/N90K/P208A/P217A/Q86G/Q94H/R138H/R169H/T345S)
T1 construct: made in house
Assay: MHC binding assay: UV-ligand exchange with β2m ELISA (peptide exchange yield)
Conditions: binding to HLA-A*02:01 evaluated by peptide exchange yield (UV-ligand exchange, β2m ELISA)
How it was run: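 UV-exchange pMHC monomers, 100-fold diluted → streptavidin capture 1 h 37 °C → HRP anti-β2m 2 ug/ml 1 h 37 °C → TMB, A450. Yield from HLA-A*02:01/MLA-001 monomer standard curve, 15-500 ng/ml. Only stably bound peptides keep β2m-containing complexes intact.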

Substance	Peptide exchange
190 (SLSTELFKV; listed as Homo sapiens) [compound 190]	+++ (≧50 = +++)
53 (AQHLSTLLL; listed as Homo sapiens) [compound 53]	+ (≧10% = +)
59 (ALADGIKSFLL; listed as Homo sapiens) [compound 59]	+++ (≧50 = +++)
158 (YLDPLWHQL; listed as Homo sapiens) [compound 158]	+++ (≧50 = +++)
269 (GLLDCPIFL; listed as Homo sapiens) [compound 269]	++++ (≧75% = ++++)
178 (SLVSWQLLL; listed as Homo sapiens) [compound 178]	++++ (≧75% = ++++)
76 (FTAEFLEKV; listed as Homo sapiens) [compound 76]	+++ (≧50 = +++)
182 (GLQDGFQITV; listed as Homo sapiens) [compound 182]	+++ (≧50 = +++)
266 (FLLDKPQDL; listed as Homo sapiens) [compound 266]	++ (≧20% = ++)
136 (LLWDAPAKC; listed as Homo sapiens) [compound 136]	+++ (≧50 = +++)
58 (HLLGEGAFAQV; listed as Homo sapiens) [compound 58]	+++ (≧50 = +++)
151 (DISKRIQSL; listed as Homo sapiens) [compound 151]	++ (≧20% = ++)
249 (YLYQILQGI; listed as Homo sapiens) [compound 249]	+++ (≧50 = +++)
241 (KQFEGTVEI; listed as Homo sapiens) [compound 241]	+++ (≧50 = +++)
222 (LLTGVFAQL; listed as Homo sapiens) [compound 222]	++ (≧20% = ++)
207 (KLFETVEEL; listed as Homo sapiens) [compound 207]	+++ (≧50 = +++)
90 (AILNVDEKNQV; listed as Homo sapiens) [compound 90]	++ (≧20% = ++)
283 (ALSELLQQV; listed as Homo sapiens) [compound 283]	+++ (≧50 = +++)
206 (GLDAFRIFL; listed as Homo sapiens) [compound 206]	++++ (≧75% = ++++)
179 (TLGEIIKGV; listed as Homo sapiens) [compound 179]	+++ (≧50 = +++)
163 (GLEERLYTA; listed as Homo sapiens) [compound 163]	++ (≧20% = ++)
82 (ILAEEPIYIRV; listed as Homo sapiens) [compound 82]	+++ (≧50 = +++)
141 (NIDINNNEL; listed as Homo sapiens) [compound 141]	++ (≧20% = ++)
86 (SLFSNIESV; listed as Homo sapiens) [compound 86]	+++ (≧50 = +++)
270 (TLLTFFHEL; listed as Homo sapiens) [compound 270]	+++ (≧50 = +++)
111 (AQLEGKLVSI; listed as Homo sapiens) [compound 111]	+++ (≧50 = +++)
62 (SLVENIHVL; listed as Homo sapiens) [compound 62]	+++ (≧50 = +++)

Substance	Peptide exchange
175 (SLLDLVQSL; listed as Homo sapiens) [compound 175]	+++ (≧50 = +++)
153 (KLVELEHTL; listed as Homo sapiens) [compound 153]	+++ (≧50 = +++)
168 (VIFEGEPMYL; listed as Homo sapiens) [compound 168]	+++ (≧50 = +++)
3 (RVIDDSLVVGV; listed as Homo sapiens) [compound 3]	+++ (≧50 = +++)
134 (SLYKSFLQL; listed as Homo sapiens) [compound 134]	++ (≧20% = ++)
148 (YLILSSHQL; listed as Homo sapiens) [compound 148]	+++ (≧50 = +++)
37 (QIVELIEKI; listed as Homo sapiens) [compound 37]	++ (≧20% = ++)
84 (FLLEREQLL; listed as Homo sapiens) [compound 84]	++++ (≧75% = ++++)
258 (QLVQRVASV; listed as Homo sapiens) [compound 258]	++ (≧20% = ++)
223 (ALHPVQFYL; listed as Homo sapiens) [compound 223]	+++ (≧50 = +++)
198 (ILTNKVVSV; listed as Homo sapiens) [compound 198]	++ (≧20% = ++)
184 (ALDSTIAHL; listed as Homo sapiens) [compound 184]	++ (≧20% = ++)
265 (FLLDKPQDLSI; listed as Homo sapiens) [compound 265]	+++ (≧50 = +++)
217 (LLWPSSVPA; listed as Homo sapiens) [compound 217]	+++ (≧50 = +++)
57 (TLYPGRFDYV; listed as Homo sapiens) [compound 57]	++ (≧20% = ++)
146 (VVAAHLAGA; listed as Homo sapiens) [compound 146]	++ (≧20% = ++)
67 (FLIENLLAA; listed as Homo sapiens) [compound 67]	+++ (≧50 = +++)
185 (TLYQGLPAEV; listed as Homo sapiens) [compound 185]	++ (≧20% = ++)
160 (TLQEWLTEV; listed as Homo sapiens) [compound 160]	+++ (≧50 = +++)
272 (FVMEGEPPKL; listed as Homo sapiens) [compound 272]	++ (≧20% = ++)
211 (LLTTVLINA; listed as Homo sapiens) [compound 211]	+++ (≧50 = +++)
124 (ALLLRLFTI; listed as Homo sapiens) [compound 124]	++ (≧20% = ++)
18 (KTASINQNV; listed as Homo sapiens) [compound 18]	++ (≧20% = ++)
115 (ILHGEVNKV; listed as Homo sapiens) [compound 115]	++ (≧20% = ++)
125 (AALEVLAEV; listed as Homo sapiens) [compound 125]	+++ (≧50 = +++)
108 (FIANLPPELKA; listed as Homo sapiens) [compound 108]	+++ (≧50 = +++)
191 (AAIEIFEKV; listed as Homo sapiens) [compound 191]	+++ (≧50 = +++)
